Data as given in patent publication US20260000752A1 (AKSTON BIOSCIENCES, published 2026).

Molecular target: T1, recombinant human Fc(gamma)RI, biotinylated (R&D Systems) (human, UniProt P12314 16-288)
T1 construct: also called rhFc(gamma) receptor I; Fc(gamma) Receptor I
Assay: ELISA pH 7.4; insulin-Fc coated, biotinylated rhFc(gamma)RI titrated (Example 51)

T1 sequence (P12314 16-288 limits assumed): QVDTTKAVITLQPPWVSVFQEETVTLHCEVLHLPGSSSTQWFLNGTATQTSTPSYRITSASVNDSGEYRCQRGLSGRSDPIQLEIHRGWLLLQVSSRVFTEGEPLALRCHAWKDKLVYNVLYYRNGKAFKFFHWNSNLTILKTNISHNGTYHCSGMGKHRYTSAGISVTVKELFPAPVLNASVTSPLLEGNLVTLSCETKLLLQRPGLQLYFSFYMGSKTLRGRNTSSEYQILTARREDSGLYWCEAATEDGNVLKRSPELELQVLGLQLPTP

B1: insulin-Fc fusion protein of SEQ ID NO: 29 (Fc fusion)
chain: FVNQHLCGSHLVEALELVCGERGFHYGGGGGGSGGGGGIVEQCCTSTCSLDQLENYCGGGGGQGGGGQGGGGQGGGGGDCPKCPAPEMLGGPSVFIFPPKPKDTLLIARTPEVTCVVVDLDPEDPEVQISWFVDGKQMQTAKTQPREEQFNGTYRVVSVLPIGHQDWLKGKQFTCKVNNKALPSPIERTISKARGQAHQPSVYVLPPSREELSKNTVSLTCLIKDFFPPDIDVEWQSNGQQEPESKYRTTPPQLDEDGSYFLYSKLSVDKSRWQRGDTFICAVMHEALHNHYTQESLSHSPG
binding result: binds
